Source: US7005505 (Genentech, dated 2006)
Numbering of substitutions follows the chain as printed. Numbers in names are those of the source.

B1: wildtype VEGF165 expressed in 293 cells (ligand)
chain: APMAEGGGQNHHEVVKFMDVYQRSYCHPIETLVDIFQEYPDEIEYIFKPSCVPLMRCGGCCNDEGLECVPTEESNITMQIMRIKPHQGQHIGEMSFLQHNKCECRPKKDRARQENPCGPCSERRKHLFVQDPQTCKCSCKNTDSRCKARQLELNERTCRCDKPRR
modifications: N-linked carbohydrate at Asn75
notes: Transiently expressed in 293 cells; tested as conditioned medium
B2: purified CHO-derived VEGF165 (ligand)
chain: B1 chain
notes: Homodimer; also called VEGF (CHO cell); wildtype VEGF165 derived from CHO cells
B3: R112A, E114A VEGF (ligand)
chain: B1 chain with R112A, E114A
notes: VEGF165 mutant from 293 cells, conditioned medium
B4: D109A, R110A VEGF (ligand)
chain: B1 chain with D109A, R110A
notes: as for B3
B5: E64N, L66S VEGF (ligand)
chain: B1 chain with E64N, L66S
modifications: putative extra N-linked glycosylation at position 64
notes: Neo-glycosylation mutant from 293 cells, conditioned medium
B6: E72A, E73A VEGF (ligand)
chain: B1 chain with E72A, E73A
notes: as for B3
B7: E64S VEGF (ligand)
chain: B1 chain with E64S
notes: preparation not described further
B8: R82A, K84A, H86A VEGF (ligand)
chain: B1 chain with R82A, K84A, H86A
notes: VEGF165 mutant from 293 cells, conditioned medium; also called R82A, K84A, H86 VEGF
B9: K107A, K108A VEGF (ligand)
chain: B1 chain with K107A, K108A
notes: as for B3
B10: D41A VEGF (ligand)
chain: B1 chain with D41A
notes: as for B3
B11: R23A VEGF (ligand)
chain: B1 chain with R23A
notes: as for B3
B12: R105A VEGF (ligand)
chain: B1 chain with R105A
notes: as for B3
B13: E64A VEGF (ligand)
chain: B1 chain with E64A
notes: as for B3
B14: H11A, H12A, E13A VEGF (ligand)
chain: B1 chain with H11A, H12A, E13A
notes: as for B3
B15: RIK(82-84)NLS VEGF (ligand)
chain: B1 chain with R82N, I83L, K84S
modifications: potential N-linked glycosylation site at position 82 (extent of glycosylation not apparent)
notes: Neo-glycosylation mutant from 293 cells, conditioned medium; also called R82N, I83L, K84S
B16: E38A VEGF (ligand)
chain: B1 chain with E38A
notes: as for B3
B17: N75A VEGF (ligand)
chain: B1 chain with N75A
notes: Unglycosylated form of VEGF from 293 cells, conditioned medium
B18: E103A VEGF (ligand)
chain: B1 chain with E103A
notes: as for B3
B19: E30A VEGF (ligand)
chain: B1 chain with E30A
notes: as for B3
B20: D63A VEGF (ligand)
chain: B1 chain with D63A
notes: as for B3
B21: D63A, E64A, E67A VEGF (ligand)
chain: B1 chain with D63A, E64A, E67A
notes: as for B3
B22: H90A, E93A VEGF (ligand)
chain: B1 chain with H90A, E93A
notes: VEGF165 mutant from 293 cells, conditioned medium; also called H9OA, E93A
B23: K84A VEGF (ligand)
chain: B1 chain with K84A
notes: as for B3
B24: H99A, K101A VEGF (ligand)
chain: B1 chain with H99A, K101A
notes: as for B3
B25: E42A VEGF (ligand)
chain: B1 chain with E42A
notes: as for B3
B26: E44A VEGF (ligand)
chain: B1 chain with E44A
notes: as for B3
B27: K48A VEGF (ligand)
chain: B1 chain with K48A
notes: as for B3
B28: E42N, E44S VEGF (ligand)
chain: B1 chain with E42N, E44S
modifications: N-linked carbohydrate at position 42 (apparently glycosylated)
notes: Neo-glycosylation control mutant from 293 cells, conditioned medium
B29: H86A VEGF (ligand)
chain: B1 chain with H86A
notes: as for B3
B30: R82A VEGF (ligand)
chain: B1 chain with R82A
notes: as for B3
B31: D34A VEGF (ligand)
chain: B1 chain with D34A
notes: as for B3
B32: E5A VEGF (ligand)
chain: B1 chain with E5A
notes: as for B3
B33: KKDR(107-110)AAAA VEGF (ligand)
chain: B1 chain with K107A, K108A, D109A, R110A
notes: VEGF165 mutant from 293 cells, conditioned medium; also called K107A, K108A, D109A, R110A
B34: E67A VEGF (ligand)
chain: B1 chain with E67A
notes: as for B3

Assays:
[1] = molecular target: T1, KDR-IgG (UniProt P35968 20-764); assay: competition with 125I-VEGF165 for KDR-IgG, radioligand plate assay, no heparin
T1 construct: Construct only cited from Park et al. 1994; also called KDR receptor-IgG chimera; soluble KDR; not shown: IgG part of the chimera (captured by anti-human IgG Fc)
T1 sequence (P35968 20-764): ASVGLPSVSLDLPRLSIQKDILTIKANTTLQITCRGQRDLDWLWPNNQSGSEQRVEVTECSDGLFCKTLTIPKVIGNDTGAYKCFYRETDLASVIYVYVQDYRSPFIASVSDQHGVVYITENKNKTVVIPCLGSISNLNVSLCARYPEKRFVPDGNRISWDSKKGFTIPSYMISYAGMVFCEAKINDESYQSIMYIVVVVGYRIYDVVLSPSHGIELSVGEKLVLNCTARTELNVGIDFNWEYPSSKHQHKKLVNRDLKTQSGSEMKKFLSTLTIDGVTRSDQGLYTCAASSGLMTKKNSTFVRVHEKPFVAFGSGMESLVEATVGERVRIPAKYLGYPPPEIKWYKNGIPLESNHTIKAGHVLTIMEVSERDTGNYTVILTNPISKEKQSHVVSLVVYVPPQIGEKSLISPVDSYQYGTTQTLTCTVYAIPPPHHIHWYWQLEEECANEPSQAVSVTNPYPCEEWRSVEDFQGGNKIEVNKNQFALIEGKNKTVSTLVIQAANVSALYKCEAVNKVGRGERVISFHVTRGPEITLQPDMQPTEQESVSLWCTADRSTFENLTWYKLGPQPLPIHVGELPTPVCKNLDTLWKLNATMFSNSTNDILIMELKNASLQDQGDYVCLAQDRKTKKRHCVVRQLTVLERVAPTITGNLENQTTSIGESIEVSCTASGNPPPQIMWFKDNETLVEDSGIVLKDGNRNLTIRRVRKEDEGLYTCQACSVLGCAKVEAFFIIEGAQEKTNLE
Description: (§1) After the supernatant was discarded, the wells were washed three times in washing buffer (0.01% Tween 80 in PBS). The plate was blocked (300 µl/well) for one hr in assay buffer (0.5% BSA, 0.03% Tween 80, 0.01% Thimerosal in PBS). The supernatant was discarded and the wells were washed. […] Aliquots of this solution (100 µl) were added to pre-coated microtiter plates and incubated for 4 hr at ambient temperature with gentle agitation. The supernatant was discarded, the plate washed, and individual microtiter wells were counted by gamma scintigraphy (LKB model 1277).
(§2) In addition to the specific amino acid substitutions, the table indicates the mean residue number for the position of the mutation(s). For a given mutant, this number is the average of the altered positions.

[2] = molecular target: T1, KDR-IgG; assay: competition with 125I-VEGF165 for KDR-IgG, n=8
Description: as §1, §2

[3] = molecular target: T2, FLT-1 IgG (UniProt P17948 27-758); assay: competition with 125I-VEGF165 for FLT-1-IgG, radioligand plate assay, no heparin
T2 construct: Construct only cited from Park et al. 1994; also called FLT-IgG; FLT-1 receptor-IgG chimera; not shown: IgG part of the chimera (captured by anti-human IgG Fc)
T2 sequence (P17948 27-758): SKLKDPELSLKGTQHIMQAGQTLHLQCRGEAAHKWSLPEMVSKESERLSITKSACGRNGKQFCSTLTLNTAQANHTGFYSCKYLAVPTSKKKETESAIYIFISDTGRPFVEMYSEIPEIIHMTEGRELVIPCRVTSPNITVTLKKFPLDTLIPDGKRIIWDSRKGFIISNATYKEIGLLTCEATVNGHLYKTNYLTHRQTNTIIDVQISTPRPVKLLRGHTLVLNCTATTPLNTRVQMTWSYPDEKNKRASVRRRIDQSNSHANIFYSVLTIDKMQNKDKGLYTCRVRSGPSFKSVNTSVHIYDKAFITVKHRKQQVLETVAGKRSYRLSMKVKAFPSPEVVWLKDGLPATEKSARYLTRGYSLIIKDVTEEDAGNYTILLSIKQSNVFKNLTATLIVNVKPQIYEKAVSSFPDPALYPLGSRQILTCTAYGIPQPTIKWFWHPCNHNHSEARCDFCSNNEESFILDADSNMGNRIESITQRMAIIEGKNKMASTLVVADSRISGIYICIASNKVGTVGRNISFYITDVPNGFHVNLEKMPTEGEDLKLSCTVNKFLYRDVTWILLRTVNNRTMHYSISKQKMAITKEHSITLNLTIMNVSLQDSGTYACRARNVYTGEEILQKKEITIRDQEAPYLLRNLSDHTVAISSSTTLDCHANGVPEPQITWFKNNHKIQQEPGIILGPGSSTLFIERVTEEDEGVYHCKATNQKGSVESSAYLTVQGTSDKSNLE
Description: as §1

[4] = molecular target: T2, FLT-1 IgG; assay: competition with 125I-VEGF165 for FLT-1-IgG, with heparin
Description: as §1

[5] = molecular target: T2, FLT-1 IgG; assay: competition with 125I-VEGF165 for FLT-1-IgG, radioligand plate assay
Description: as §1

[6] = molecular target: T2, FLT-1 IgG; assay: as above; remark: listed apart in the source
Description: as §1

[7] = molecular target: T1, KDR-IgG; assay: competition with 125I-VEGF165 for KDR-IgG, radioligand plate assay
Description: as §1

Binder | IC50 [3] | IC50 [5] | IC50 [6] | other results
B1 | 0.022 nM |  |  | IC50 [1]: 0.03 nM; IC50 [2]: 0.031 nM; IC50 [4]: 0.015 nM
B2 | 0.019 nM | 0.95 ng/mL | 0.95 ng/mL | 
B3 | 0.013 nM | 0.56 ng/mL |  | IC50 [1]: 0.04 nM
B4 | 0.035 nM | 1.42 ng/mL |  | IC50 [1]: 0.03 nM
B5 | 0.98 nM |  | 35.6 ng/mL | IC50 [4]: 0.65 nM
B6 | 0.03 nM | 0.91 ng/mL |  | 
B7 |  |  | 1.9 ng/mL | 
B8 | 0.048 nM |  | 1.7 ng/mL | 
B9 | 0.066 nM | 2.94 ng/mL |  | 
B10 | 0.022 nM |  |  | 
B11 | 0.03 nM | 1 ng/mL |  | IC50 [7]: 2 ng/mL
B12 | 0.038 nM | 1.57 ng/mL |  | 
B13 | 0.016 nM |  | 0.94 ng/mL | IC50 [7]: 8 ng/mL
B14 | 0.02 nM | 0.62 ng/mL |  | 
B15 | 0.029 nM |  | 1.63 ng/mL | IC50 [1]: > 100 nM; IC50 [7]: > 10000 ng/mL
B16 | 0.015 nM | 0.87 ng/mL |  | 
B17 | 0.022 nM | 1.26 ng/mL |  | 

Binder | IC50 [3] | IC50 [5] | IC50 [6] | other results
B18 | 0.017 nM | 0.74 ng/mL |  | 
B19 | 0.028 nM |  |  | 
B20 | 0.026 nM |  | 1.54 ng/mL | IC50 [1]: 0.005 nM
B21 | 0.78 nM |  | 44.6 ng/mL | 
B22 | 0.026 nM | 0.077 ng/mL |  | 
B23 | 0.024 nM |  | 1.91 ng/mL | 
B24 | 0.03 nM | 1.33 ng/mL |  | 
B25 | 0.008 nM | 0.51 ng/mL |  | IC50 [1]: 0.007 nM
B26 | 0.009 nM | 0.54 ng/mL |  | IC50 [1]: 0.004 nM
B27 | 0.026 nM | 1.08 ng/mL |  | IC50 [1]: 0.02 nM
B28 | 0.013 nM | 0.77 ng/mL |  | 
B29 | 0.015 nM |  | 1.19 ng/mL | IC50 [7]: 2 ng/mL
B30 | 0.02 nM |  | 1.23 ng/mL | 
B31 | 0.011 nM | 0.59 ng/mL |  | 
B32 | 0.022 nM |  |  | 
B33 | 0.054 nM | 2.42 ng/mL |  | 
B34 | 0.008 nM |  | 0.47 ng/mL | 
